# Data reported in paper PMC5906637.
# pKd, pKi: −log10 of the molar value.
# Tests used:
# FXa [1] = target: FXa
# FXa [2] = assay: enzyme inhibition kinetics (amidolytic activity); thrombin (36.6 nM; 3.0 µl, 10 NIH/ml) with chromogenic substrate T1637 or FXa (0.13 µM) with F3301, lunathrombase 0-0.4 µM; Michaelis-Menten fit; competitive model for thrombin, non-competitive model for FXa
# human thrombin (human) [3] = assay: as above
# FXa [4] = assay: other fluorescence titration; thrombin, FXa or fibrinogen (0.2 µM each) incubated with lunathrombase (0.2-1.0 µM in the methods, 0.2-1.4 µM in the legend) for 3 min at room temperature; excitation 280 nm, emission 300-425 nm; one site saturation binding curve
# human fibrinogen (human) = human fibrinogen (human) (UniProt P02671); assay: as above
# human thrombin (human) [5] = assay: as above
substance,measurement,setting,value
lunathrombase (enzyme),"inhibition of prothrombin (1.4 µM) activation by FXa (0.13 µM) pre-incubated with lunathrombase (0.2 µM), SDS-PAGE",FXa [1],100%
same,pKi,FXa [2],7.99
same,pKi,human thrombin (human) [3],7.57
same,pKd,FXa [4],5.72
same,pKd,human fibrinogen (human),6.26
same,pKd,human thrombin (human) [5],6.60
